Consider 17 sequences from the supplement of paper PMC9170038.

The subject of the data set is MS2 coat protein. Put plainly: apparent KD of MS2 coat protein; higher = weaker reporter binding. The settings on record: Eterna round: R107. How it is done: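 RNA-MaP round R107: designed RNA switches with theophylline, tryptophan, arginine or FMN aptamers are transcribed on-chip within common flanks. They are titrated with SNAP-549-labelled MS2 coat protein in RNA-MaP buffer (100 mM Tris pH 7.5, 80 mM KCl, 4 mM MgCl2), without ligand or with the indicated ligand. Median apparent KD per design.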

[1] abbreviates: input ligand: theophylline 20 uM.
Where [2] appears, read: input ligand: theophylline 2 mM.
The mark [3] stands for this setting: input ligand: tryptophan 2.4 mM.

As to “GCUAGCCGAAAGGCUAGCAGCGCUACAGAAGGAGCGUGCGAAAGCACAGGUAGGUCGCUGAACAUGAGCAUCAGCCAUGUUGCGC [SSAA - Alter Amptam #2 V2+NP]”, the “apparent KD of MS2 coat protein” value by setting is: (input ligand: arginine 13.2 mM) 14.8 nM; (input ligand: none) 12.2 nM; under setting [1], 18.5 nM; under setting [2], 18.6 nM; under setting [3], 11.7 nM.
Turning to “GAUGAACUAUUUGAUACCAGACUACAUGAGGAUCACCCAUGUGAGUUUCGUCCUCUGCCAGUCCCUUGGCAGCAAAUAGUUUAUC [XTheo B #8]”, the “apparent KD of MS2 coat protein” value was 15.8 nM (input ligand: arginine 13.2 mM), 36.7 nM under setting [1] and 14.3 nM under setting [3].
Take “UUACAUGAGGAUCACCCAUGUCAUAAUGAUACCAGAUAGUUAAUGAUCCCUUGGCAGCAUAAUACCUAGACAUUUAAGUCAUAGG [Aa]”: the “apparent KD of MS2 coat protein” value worked out at 59.5 nM (input ligand: arginine 13.2 mM), 80 nM under setting [1] and 56.2 nM under setting [3].
As for “UUGUUGUACGGAAGGAGCGUGUAAGAUUAAGAACAUGAGGAUCACCCAUGUUUUAAGGGAACACAGGUAGGUCGCCGUGUGGUGG [11.Q]”, the “apparent KD of MS2 coat protein” value reads like this: (input ligand: arginine 13.2 mM) 14 nM; (input ligand: none) 15.1 nM; under setting [1], 20 nM; under setting [2], 16.4 nM; under setting [3], 16.2 nM.
“AUGUCGUUGAAUAUAGCGGCUUGGUGUGAUACCAGAAUGAUCUAAUUCCCUUGGCAGCAUUACAUGAGGAUCACCCAUGUUUAGG [SSTheo A #19]”: the “apparent KD of MS2 coat protein” value came out at 24.4 nM (input ligand: arginine 13.2 mM), 29.6 nM under setting [1] and 28.8 nM under setting [3].
In the case of “UUCAGACAUGAGGAUCACCCAUGUACUGAAGGAGCGGAUAAAUAUCCAGGUAGGUCGCAGUAUUGAGGGUCUACUUCCAGUCUUU [Reoruser]”, the “apparent KD of MS2 coat protein” value came to 8.42 nM (input ligand: arginine 13.2 mM); 9.48 nM (input ligand: none); 11.9 nM under setting [1]; 9.47 nM under setting [2]; 9.82 nM under setting [3].
Consider “GAUGAACUAUUUGAUACCAGACUACAUGAGGAUCACCCAUGUGAGUUUCCUCCUCUGCCAGUCCCUUGGCAGCAAAUAGUUUAUC [XTheo B #7]”, for which the “apparent KD of MS2 coat protein” value by setting is: (input ligand: arginine 13.2 mM) 57.6 nM; under setting [1], 96.9 nM; under setting [3], 42.3 nM.
As to “UGUAUGUGAUCUGAUACCAGUCCAACUGGUAAAACUUGAGGAUCACCCAAGUAAAAUUGGGACCCUUGGCAGCAGAUCGCAUACU”, the “apparent KD of MS2 coat protein” value reads like this: (input ligand: arginine 13.2 mM) 126 nM; (input ligand: none) 371 nM; under setting [1], 360 nM; under setting [2], 81.7 nM; under setting [3], 371 nM.
Turning to “ACAUUUAACUGAAGGAGCGUGAUAUGUACAUGAGGAUCACCCAUGUCUUACAUGUGAUAUUCACAGGUAGGUCGCAGACUAAUGA [JR_ExcArginiB_Sub004]”, the “apparent KD of MS2 coat protein” value reads like this: (input ligand: arginine 13.2 mM) 22.7 nM; (input ligand: none) 18.8 nM; under setting [1], 23.2 nM; under setting [2], 23 nM; under setting [3], 20.3 nM.
On to “CUAGGAAACUAGUAAGGGUGGUAUUGAGAUACCAGUACAGAAAUGUACCCUUGGCAGCUCACUGCAACAUGAGGAUCACCCAUGU [Ex Theophylline A 12]”, for which the “apparent KD of MS2 coat protein” value is 22.5 nM (input ligand: arginine 13.2 mM), 29.3 nM under setting [1] and 27 nM under setting [3].
Turning to “UUCAGCUAGUCGGCCGCCACUACAUGAGGAUCACCCAUGUAUCCUAAACACUGCUUCGGCAGUGGUAGGACCGGGACUAGCUGAG”, the “apparent KD of MS2 coat protein” value by setting is: (input ligand: arginine 13.2 mM) 18.1 nM; (input ligand: none) 13.9 nM; under setting [1], 21.6 nM; under setting [2], 18.3 nM; under setting [3], 136 nM.
On to “ACAUGUUGGUGGUAUCUACGAAGGCGGAAACGAGGACCGGUACGGCCGCCACUCGGCGACAUGAGGAUCACCCAUGUGGUUAAAA [Exclusion - Tryptophan A (Freestyle 5)]”, for which the “apparent KD of MS2 coat protein” value runs as follows: (input ligand: arginine 13.2 mM) 28.8 nM; under setting [1], 96.9 nM; under setting [2], 254 nM.
Turning to “GCACUACAUGAGGAUCACCCAUGUGCAGAUACCAGAGGUGUAUGCCUCCCUUGGCAGCUGCGUCGCUCUGGAAGCCUAUUGGUUU [Same State Theophylline A GF16]”, the “apparent KD of MS2 coat protein” value was found to be 15.8 nM (input ligand: arginine 13.2 mM), 25.5 nM under setting [1] and 18.4 nM under setting [3].
On to “CCUCAUGAACAUGAGGAUCACCCAUGUACACGAGGACCGGUACGGCCGCCACUCGAAUAACCUUAAUAUAAAUAAUAAUAAAAGG [5' end split MS2]”, for which the “apparent KD of MS2 coat protein” value is 14.5 nM (input ligand: arginine 13.2 mM); 16.7 nM (input ligand: none); 21.5 nM under setting [1]; 19.1 nM under setting [2]; 45.5 nM under setting [3].
“GCUAGGUCUACGGCCGCCACUAGACGUGGGUAAAACAUGAGGAUCACCCAUGUGCUACGGGCGAAUAGGACCGGGUAGACCUAGC [SSTB NP+V+V2 #15 +-Same Structure]”: the “apparent KD of MS2 coat protein” value by setting is: (input ligand: arginine 13.2 mM) 60.1 nM; (input ligand: none) 368 nM; under setting [1], 529 nM; under setting [2], 711 nM; under setting [3], 85.4 nM.
As to “GGAUAGGACAGAAGGAGCGUGAGAUGCAUACCUUCAUUCCUCACAUGAGGAUCACCCAUGUCACAGGUAGGUCGCUGUCCUAUCG [#20 Exclusion - Arginine B]”, the “apparent KD of MS2 coat protein” value (input ligand: arginine 13.2 mM) came out at 64.8 nM; the “apparent KD of MS2 coat protein” value (input ligand: none) is 93.5 nM; the “apparent KD of MS2 coat protein” value under setting [1] worked out at 108 nM; the “apparent KD of MS2 coat protein” value under setting [2] is 96.5 nM; the “apparent KD of MS2 coat protein” value under setting [3] amounted to 90.7 nM.
The matching figures for “AAUUGGGUUGGUGAGGUGGUUGGAGGCGAUACCAGCGUGGAAACACGCCCUUGGCAGCGCCAGGACAUGAGGAUCACCCAUGUAA [Praha]”: 32.1 nM, 260 nM, 486 nM, 713 nM and 205 nM.
